Source: patent publication US20230203119A1 (IGM BIOSCIENCES, published 2023)

What was measured:
[1] = target: T1, IL-15 receptor (β and γ subunits) on human CD8 T cells and NK cells (human, UniProt P14784 27-551; P31785 23-369); assay: cell-based or functional assay
T1 sequence (looked up) 1: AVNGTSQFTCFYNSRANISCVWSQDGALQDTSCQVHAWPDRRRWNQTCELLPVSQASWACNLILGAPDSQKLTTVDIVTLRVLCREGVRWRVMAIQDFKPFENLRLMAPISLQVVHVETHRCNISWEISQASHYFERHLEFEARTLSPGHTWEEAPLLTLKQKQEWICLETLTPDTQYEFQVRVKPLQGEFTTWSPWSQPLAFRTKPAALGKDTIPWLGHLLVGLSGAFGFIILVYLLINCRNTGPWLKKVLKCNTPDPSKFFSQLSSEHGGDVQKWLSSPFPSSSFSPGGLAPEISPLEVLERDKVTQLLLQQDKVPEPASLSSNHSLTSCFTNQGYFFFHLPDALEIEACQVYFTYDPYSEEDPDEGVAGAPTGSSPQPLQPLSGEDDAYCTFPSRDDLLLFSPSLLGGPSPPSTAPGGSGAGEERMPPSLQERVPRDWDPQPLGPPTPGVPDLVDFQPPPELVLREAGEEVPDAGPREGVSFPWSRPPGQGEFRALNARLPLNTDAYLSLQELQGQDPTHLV
T1 sequence (looked up) 2: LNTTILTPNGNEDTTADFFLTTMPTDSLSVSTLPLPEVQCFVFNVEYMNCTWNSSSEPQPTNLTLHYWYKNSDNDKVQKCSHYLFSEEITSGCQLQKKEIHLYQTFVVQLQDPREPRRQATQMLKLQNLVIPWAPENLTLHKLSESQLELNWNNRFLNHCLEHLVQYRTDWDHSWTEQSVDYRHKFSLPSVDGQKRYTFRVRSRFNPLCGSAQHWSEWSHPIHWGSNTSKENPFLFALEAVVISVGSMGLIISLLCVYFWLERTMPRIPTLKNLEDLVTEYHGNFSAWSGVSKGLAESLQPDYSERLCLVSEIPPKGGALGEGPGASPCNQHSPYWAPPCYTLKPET

PD-L1 = target: T2, PD-L1 (UniProt Q9NZQ7 19-238, limits assumed); assay: ELISA on PD-L1
T2 construct: ELISA antigen; also called programmed cell death ligand-1 protein
T2 sequence (Q9NZQ7 19-238 limits assumed): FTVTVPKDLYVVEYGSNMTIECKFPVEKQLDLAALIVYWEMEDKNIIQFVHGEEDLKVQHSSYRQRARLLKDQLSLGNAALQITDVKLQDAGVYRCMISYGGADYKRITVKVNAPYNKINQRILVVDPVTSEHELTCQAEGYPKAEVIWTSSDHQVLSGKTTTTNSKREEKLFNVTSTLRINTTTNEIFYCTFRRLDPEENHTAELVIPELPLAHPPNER

[2] = target: T1, IL-15 receptor (β and γ subunits) on …; assay: cell-based or functional assay; remark: listed apart in the source
[3] = target: T1, IL-15 receptor (β and γ subunits) on …; assay: cell-based or functional assay; remark: listed apart in the source
[4] = target: T1, IL-15 receptor (β and γ subunits) on …; assay: cell-based or functional assay; remark: listed apart in the source
[5] = target: T3, IL-15 receptor (β and γ subunits) on cynomolgus CD8 T cells (cynomolgus, UniProt Q38J85 27-551; A0A2K5VGJ6 23-369); assay: cell-based or functional assay
T3 sequence (looked up) 1: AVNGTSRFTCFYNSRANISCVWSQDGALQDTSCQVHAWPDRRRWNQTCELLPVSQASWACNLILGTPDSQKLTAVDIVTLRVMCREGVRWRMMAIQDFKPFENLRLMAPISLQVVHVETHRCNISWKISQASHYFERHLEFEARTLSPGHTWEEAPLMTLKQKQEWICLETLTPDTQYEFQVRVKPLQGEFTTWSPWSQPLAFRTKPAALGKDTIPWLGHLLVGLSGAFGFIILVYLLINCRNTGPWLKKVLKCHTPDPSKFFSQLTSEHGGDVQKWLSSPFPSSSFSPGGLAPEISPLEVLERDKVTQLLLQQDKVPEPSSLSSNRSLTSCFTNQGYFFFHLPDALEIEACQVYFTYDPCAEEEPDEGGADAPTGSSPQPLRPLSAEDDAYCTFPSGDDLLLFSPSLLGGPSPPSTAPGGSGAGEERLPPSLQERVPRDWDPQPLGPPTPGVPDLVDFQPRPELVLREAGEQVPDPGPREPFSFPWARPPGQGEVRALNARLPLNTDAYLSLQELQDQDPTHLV
T3 sequence (looked up) 2: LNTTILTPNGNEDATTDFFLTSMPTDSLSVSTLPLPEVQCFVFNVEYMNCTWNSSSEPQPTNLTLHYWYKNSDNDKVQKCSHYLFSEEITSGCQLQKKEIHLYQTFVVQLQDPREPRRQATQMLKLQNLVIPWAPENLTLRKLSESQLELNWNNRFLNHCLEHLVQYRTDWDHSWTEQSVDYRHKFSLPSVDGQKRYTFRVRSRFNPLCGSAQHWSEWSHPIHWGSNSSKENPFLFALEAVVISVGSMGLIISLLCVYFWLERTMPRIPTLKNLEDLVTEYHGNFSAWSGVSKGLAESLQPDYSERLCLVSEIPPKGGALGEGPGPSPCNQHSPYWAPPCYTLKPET

[6] = target: T1, IL-15 receptor (β and γ subunits) on …; assay: cell-based or functional assay; remark: listed apart in the source
[7] = target: T4, human PD-L1 expressed on HEK-293T cells (human, UniProt Q9NZQ7 19-290); assay: high-throughput flow cytometry on HEK-293T cells expressing human PD-L1 and its alanine mutants
T4 construct: whole, on cells
T4 sequence (Q9NZQ7 19-290): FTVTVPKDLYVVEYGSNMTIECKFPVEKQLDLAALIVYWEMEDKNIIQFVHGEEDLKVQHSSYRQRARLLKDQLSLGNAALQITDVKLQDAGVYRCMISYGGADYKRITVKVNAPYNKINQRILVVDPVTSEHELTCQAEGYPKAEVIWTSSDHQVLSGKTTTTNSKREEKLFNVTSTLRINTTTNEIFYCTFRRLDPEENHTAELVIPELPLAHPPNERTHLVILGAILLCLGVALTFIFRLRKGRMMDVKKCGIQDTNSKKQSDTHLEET
Description: The epitope that the 3C5 H2L2 (VH: SEQ ID NO: 91, VL: SEQ ID NO: 94) antibody binds to on human PD-L1 was mapped using Alanine-scanning mutagenesis. Epitope mapping was performed by constructing an Alanine scan library of human PD-L1 which was then expressed on HEK-293T cells. Binding of the 3C5 H2L2 F(ab′)2 to each HEK-293 transfected PD-L1 mutant version was evaluated by high-throughput flow cytometry.

Row | Binder | NK cell proliferation (Ki-67) EC50, Donor 230 [1] [pM] | NK cell proliferation (Ki-67) EC50, Donor 403 [1] [pM] | Kd (PD-L1) [pM] | CD8+ T cell proliferation (Ki-67) EC50 [2] [pM] | CD8+ T cell proliferation (Ki-67) EC50, Donor 230 [3] [pM] | CD8+ T cell proliferation (Ki-67) EC50, Donor 403 [3] [pM] | also measured
1 | h3C5 IgM + J*RI (anti-PD-L1 IgM pentamer with modified J-chain J*RI) (antibody, IgM pentamer; Third chain is the modified J-chain J*RI (J* Y102A - IL-15Ralpha sushi - IL-15); also called H1-3C5 + J*RI; h3C5 + J*RI) VH: QVQLQESGPGLVKPSETLSLTCTVSGFSLTSYDISWIRQPPGKGLEWIGVIWTGVGTNYNPSLKSRVTISVDTSKNQFSLKLSSVTAADTAVYYCARDPYYYGMDYWGQGTLVTVSS VL: DIQMTQSPSSLSASVGDRVTITCRASQDISIWLSWYQQKPGKAPKLLIYKASNLHTGVPSRFSGSGSGTDFTLTISSLQPEDFATYYCLQSQSFPRTFGQGTKLEIK not shown | 27 | 27 | 40 | 100 | 310 | 510 | –
2 | 3C5 IgM + J*RI-N4D/N65D (IL-15 double mutant N4D/N65D) (antibody) VH: QVQLQESGPGLVKPSETLSLTCTVSGFSLTSYDISWIRQPPGKGLEWIGVIWTGVGTNYNPSLKSRVTISVDTSKNQFSLKLSSVTAADTAVYYCARDPYYYGMDYWGQGTLVTVSS VL: DIQMTQSPSSLSASVGDRVTITCRASQDISIWLSWYQQKPGKAPKLLIYKASNLHTGVPSRFSGSGSGTDFTLTISSLQPEDFATYYCLQSQSFPRTFGQGTKLEIK not shown | – | – | – | – | – | – | CD8+ T cell proliferation (Ki-67), potency against the constructs with WT IL-15 [4]: 50 fold reduced potency; NK cell proliferation (Ki-67), potency against the constructs with WT IL-15 [4]: 100 fold reduced potency
3 | h3C5 IgM + SJ*RI (anti-PD-L1 IgM pentamer with modified J-chain SP34 scFv-J*-R-I) (bispecific antibody) VH: QVQLQESGPGLVKPSETLSLTCTVSGFSLTSYDISWIRQPPGKGLEWIGVIWTGVGTNYNPSLKSRVTISVDTSKNQFSLKLSSVTAADTAVYYCARDPYYYGMDYWGQGTLVTVSS VL: DIQMTQSPSSLSASVGDRVTITCRASQDISIWLSWYQQKPGKAPKLLIYKASNLHTGVPSRFSGSGSGTDFTLTISSLQPEDFATYYCLQSQSFPRTFGQGTKLEIK not shown | 630 | 710 | – | – | 30 | 340 | –
4 | h3C5 IgM + J* (anti-PD-L1 IgM pentamer with J-chain variant Y102A, no IL-15) (antibody) VH: QVQLQESGPGLVKPSETLSLTCTVSGFSLTSYDISWIRQPPGKGLEWIGVIWTGVGTNYNPSLKSRVTISVDTSKNQFSLKLSSVTAADTAVYYCARDPYYYGMDYWGQGTLVTVSS VL: DIQMTQSPSSLSASVGDRVTITCRASQDISIWLSWYQQKPGKAPKLLIYKASNLHTGVPSRFSGSGSGTDFTLTISSLQPEDFATYYCLQSQSFPRTFGQGTKLEIK not shown | > 80000 | > 80000 | – | – | > 80000 | > 80000 | –
5 | KD-RI (anti-PD-L1 IgG with human IL-15Ralpha sushi domain and human IL-15 fused to its C-terminus) (antibody, Heavy chain fusion protein and light chain as described in U.S. Pat. No. 10,407,502) heavy: not shown light: QSALTQPASVSGSPGQSITISCTGTSSDVGAYNYVSWYQQHPGKAPKLMIYDVSNRPSGVSNRFSGSKSGNTASLTISGLQAEDEADYYCSSYTSSSTRVFGTGTKVTVLGQPKANPTVTLFPPSSEELQANKATLVCLISDFYPGAVTVAWKADGSPVKAGVETTKPSKQSNNKYAASSYLSLTPEQWKSHRSYSCQVTHEGSTVEKTVAPTEC | – | – | 1330 | 510 | – | – | –
6 | 153 IgM + J*RI (anti-CD20 IgM antibody 153 with modified J-chain J*RI) (antibody) VH: EVQLVQSGAEVKKPGESLKISCKGSGYSFTSYWIGWVRQMPGKGLEWMGIIYPGDSDTRYSPSFQGQVTISADKSITTAYLQWSSLKASDTAMYYCARHPSYGSGSPNFDYWGQGTLVTVSS VL: not shown not shown | – | – | – | 640 | – | – | –
7 | m3c5-J*RI (anti-PD-L1 human IgM pentamer with m3c5 VH/VL and modified J-chain J*RI) (antibody) VH: QVQLKESGPGLVAPSQSLSITCTVSGFSLTSYDISWVRQPPGKGLEWLGVIWTGVGTNYNSAFMSRLSISKDNSKSQVFLKMNSLQTDDTAMYYCVRDPYYYGMDYWGQGTSVTVSS VL: DIQMNQSPSSLSASLGDTITITCRASQDISIWLSWYQQKPGNIPELLIYKASNLHTGVPPRFSGSGSGTDFTLTISSLQPEDIATYYCLQSQSFPRTFGGGTKLEIK not shown | – | – | – | – | – | – | cynomolgus CD8+ T cell proliferation (Ki-67), average EC50 [5]: 6850 pM; human CD8+ T cell proliferation (Ki-67), average EC50 [6]: 3220 pM
8 | h3C5 IgM + JH (anti-PD-L1 IgM pentamer with J-chain fused to human serum albumin) (antibody, IgM pentamer; Third chain is the modified J-chain J15HSA (no IL-15); also called H1-3C5 + JH; hu3C5+JH) VH: QVQLQESGPGLVKPSETLSLTCTVSGFSLTSYDISWIRQPPGKGLEWIGVIWTGVGTNYNPSLKSRVTISVDTSKNQFSLKLSSVTAADTAVYYCARDPYYYGMDYWGQGTLVTVSS VL: DIQMTQSPSSLSASVGDRVTITCRASQDISIWLSWYQQKPGKAPKLLIYKASNLHTGVPSRFSGSGSGTDFTLTISSLQPEDFATYYCLQSQSFPRTFGQGTKLEIK not shown | – | – | 50 | > 100000 | – | – | –
9 | 3C5 H2L2 F(ab')2 (antibody, V domains shown, Tested as F(ab')2; also called 3C5 Fab) VH: QVQLQESGPGLVKPSETLSLTCTVSGFSLTSYDISWIRQPPGKGLEWLGVIWTGVGTNYNPSLKSRVTISKDTSKNQFSLKLSSVTAADTAVYYCARDPYYYGMDYWGQGTLVTVSS VL: DIQMTQSPSSLSASVGDRITITCRASQDISIWLSWYQQKPGKAPKLLIYKASNLHTGVPSRFSGSGSGTDFTLTISSLQPEDFATYYCLQSQSFPRTFGQGTKLEIK | – | – | – | – | – | – | binding result [7]: binds
